Here are results for two proteins from paper PMC5428437, “The function of two P450s, CYP9M10 and CYP6AA7, in the permethrin resistance of Culex quinquefasciatus” (Scientific Reports, 2017).

Substrate in series [1]: CCOc1ccc2ccc(=O)oc2c1
Nature of the series: 7-ethoxycoumarin O-deethylation (ECOD), fluorescence of 7-hydroxycoumarin, Sf9 microsomes. It counts as biochemical, Culex quinquefasciatus. Particulars: 1 mM NADPH, 0.1 M sodium phosphate pH 7.5, 30 °C, 30 min, substrate 0.1 to 1.2 mM, apparent. From the text:
7-ethoxycoumarin O-deethylation (ECOD), fluorescence of 7-hydroxycoumarin, Sf9 microsomes on CYP9M10/CPR

Substrate in series [2]: CCOc1ccc2ccc(=O)oc2c1
Described as above. It is filed as biochemical, Culex quinquefasciatus. As to conditions: 1 mM NADPH, 0.1 M sodium phosphate pH 7.5, 30 °C, 30 min, substrate 0.1 to 1.2 mM, apparent. From the text: 7-ethoxycoumarin O-deethylation (ECOD), fluorescence of 7-hydroxycoumarin, Sf9 microsomes on CYP6AA7/CPR
The source holds these as a separate data set.

B1: CYP9M10/CPR (Culex quinquefasciatus) (protein)
chain: MTSLEWLLLLVPTAIYLFYRWSVATFDYFEKRGVPFVKPVPLLGGMWNFFSGKMHMVDAGSLGYEMFPDSRFSGFFAFRKPGYLIHDPELVKQITIKDFDHFADHTNVVPIEADPVLGRALFFTEGTRWKHGRSGLSPAFTGRKMRNMFALLSNYMEGAMGRLVDDARRDGGLELEMRDLFQKLGNDVTTSLSFGVEIDSVHNPNNEFMRRGKELIATDGIQGLKFLLLTVLPKSFFRTLRIRIIPKEATDFYVDVISKTIKQREEHNIVRPDFIHLLVQGRKNELKMEQADDQLKSAGFSTVEEHLQSSTENSQYSDLDITAAAASFFFGGLETTTTVICFALYEMSQNPNVKQKLQAEIDQVKEQLSTTDSKLSYEVLQNMKYLDMVVSETLRRWAPLGLTNRACTKPYTIEDNNGTKVSIQVGDLIQIPIQSIHRDHRFYPDPYKFDPERFSEENKANINRSAFLPFGSGPRNCIGSRLALMQTKCFLYYTLANFELELCPKTDVPIKLNKRSVSLDTLSGFWFRMVPRGEMKK
notes: complete reading frames cloned from 4th instar larvae cDNA; microsomal protein, not purified; with NADPH--cytochrome P450 reductase
As a reminder, the Km is the concentration of substrate that gives half-maximal velocity. With B1, the Michaelis-Menten constant (Km) in series [1] is reported as 779.3 ± 16.0 µM.

B2: CYP6AA7/CPR (Culex quinquefasciatus) (protein)
chain: MSLLNTLLYLVLPVAALIYLFVRRKLSYWADRNVPHAPGSFPMGSLQGMGTKYHMSHILERIYQQFKNESPAVGFYLTMKPTLMVTDLELVKQVLVKDFNSFRDRGVYYNEKDDPVSAHLFAIDGEKWRFLRNKLSPTFTSGKIKYMFNTMQEIGDEFVECFGRYEEREEAVDVKTLCGWFTCDVIGSCAFGLNCNSLKNEESELITIANRLFKPSPIDAMWQFFFMSFRDLSAKLRLLILPRDIAKYFMTLIPETVTYREQNNVTRPDFLQLLIQLKNKGTVDGAEQESSGETLTMNQVVAQSFVFMLGGFETTSTALTFALFELANNPEIQEKVRVEVSSVLARHDGKITYDALKEMTYLEQVVNETLRMYPPVPFVARNSNHSYHITHPDVTLDADTMVLVPVYAIHYDPDIYQNPTRFDPDRFTPEATQARHTHAFLPFGDGPRNCIGLRFALLEVKFGIAVLLSKFRFSPSAKMILPLELDISAPMMAAKGGVWLDVNKINSKE
notes: as for B1
Turning to B2, the Km in series [2] is listed as 564.8 ± 14.7 µM.
